Source: US20190185537A1 (AstraZeneca / MedImmune, published 2019)
Numbered stars: 1 amine (or outer) side, 2 acyl side, 3 side chain; on linkers, the order of the positions; unused ones are H or OH. Side chains are listed from the residue outwards. Ends that are not written are not given here. * marks the point of attachment. γGlu = O=C(O)[C@H](CCC(=O)[*:2])N[*:1]; Palmitoyl = CCCCCCCCCCCCCCCC(=O)*

Legend:
Assay in all cases: cell-based or functional assay
human glucagon receptor = human glucagon receptor (human, UniProt P47871 26-477)
[1] = molecular target: T1, human glucose-dependent insulinotropic peptide (gastric inhibitory polypeptide) receptor (human) (UniProt P48546)
T1 sequence (looked up): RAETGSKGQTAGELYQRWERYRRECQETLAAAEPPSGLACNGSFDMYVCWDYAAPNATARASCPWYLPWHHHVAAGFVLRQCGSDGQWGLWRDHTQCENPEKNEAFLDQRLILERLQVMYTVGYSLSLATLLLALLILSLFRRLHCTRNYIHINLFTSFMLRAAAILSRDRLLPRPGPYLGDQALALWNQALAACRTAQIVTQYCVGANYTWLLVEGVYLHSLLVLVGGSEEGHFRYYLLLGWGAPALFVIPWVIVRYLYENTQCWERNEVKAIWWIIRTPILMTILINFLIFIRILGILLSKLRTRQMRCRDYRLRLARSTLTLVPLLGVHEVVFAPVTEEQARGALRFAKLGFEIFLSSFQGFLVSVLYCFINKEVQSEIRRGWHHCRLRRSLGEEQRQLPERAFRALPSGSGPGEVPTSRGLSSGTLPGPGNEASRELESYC

human GLP-1 receptor = human GLP-1 receptor (human, UniProt P43220 24-463)
Chain of human GLP-1 receptor (P43220 24-463): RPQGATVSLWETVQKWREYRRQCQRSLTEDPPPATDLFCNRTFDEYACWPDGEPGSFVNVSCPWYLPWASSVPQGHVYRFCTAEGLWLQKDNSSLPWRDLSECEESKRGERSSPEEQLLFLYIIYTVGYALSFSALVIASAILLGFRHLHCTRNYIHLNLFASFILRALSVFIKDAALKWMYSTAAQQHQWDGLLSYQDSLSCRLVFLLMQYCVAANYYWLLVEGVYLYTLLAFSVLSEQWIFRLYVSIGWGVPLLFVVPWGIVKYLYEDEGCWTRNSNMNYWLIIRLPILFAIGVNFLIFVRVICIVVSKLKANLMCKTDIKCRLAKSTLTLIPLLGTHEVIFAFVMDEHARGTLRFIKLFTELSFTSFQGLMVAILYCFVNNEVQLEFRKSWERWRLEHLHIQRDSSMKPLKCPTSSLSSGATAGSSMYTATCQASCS

Chain of human glucagon receptor (P47871 26-477): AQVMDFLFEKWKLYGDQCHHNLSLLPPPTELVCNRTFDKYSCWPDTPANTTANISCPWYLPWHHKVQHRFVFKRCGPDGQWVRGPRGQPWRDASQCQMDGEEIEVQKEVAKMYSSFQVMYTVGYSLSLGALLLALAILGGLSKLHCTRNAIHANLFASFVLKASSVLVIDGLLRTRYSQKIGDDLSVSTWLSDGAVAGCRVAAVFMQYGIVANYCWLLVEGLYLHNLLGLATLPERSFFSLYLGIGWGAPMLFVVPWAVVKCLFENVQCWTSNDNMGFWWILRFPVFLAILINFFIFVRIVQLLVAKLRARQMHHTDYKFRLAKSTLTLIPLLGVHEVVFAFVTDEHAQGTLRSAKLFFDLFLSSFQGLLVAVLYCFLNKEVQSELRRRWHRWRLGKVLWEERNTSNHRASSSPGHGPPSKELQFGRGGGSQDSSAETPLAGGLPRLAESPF

B1: g733 (peptide)
peptide: HGEGTFTSDYSKYK([γGlu-Palmitoyl])DSRRAQDFVQWLVAGG-NH2
modifications: N-terminus assumed
SMILES: CCCCCCCCCCCCCCCC(=O)N[C@@H](CCC(=O)NCCCC[C@H](NC(=O)[C@H](Cc1ccc(O)cc1)NC(=O)[C@H](CCCCN)NC(=O)[C@H](CO)NC(=O)[C@H](Cc1ccc(O)cc1)NC(=O)[C@H](CC(=O)O)NC(=O)[C@H](CO)NC(=O)[C@@H](NC(=O)[C@H](Cc1ccccc1)NC(=O)[C@@H](NC(=O)CNC(=O)[C@H](CCC(=O)O)NC(=O)CNC(=O)[C@@H](N)Cc1c[nH]cn1)[C@@H](C)O)[C@@H](C)O)C(=O)N[C@@H](CC(=O)O)C(=O)N[C@@H](CO)C(=O)N[C@@H](CCCNC(=N)N)C(=O)N[C@@H](CCCNC(=N)N)C(=O)N[C@@H](C)C(=O)N[C@@H](CCC(N)=O)C(=O)N[C@@H](CC(=O)O)C(=O)N[C@@H](Cc1ccccc1)C(=O)N[C@H](C(=O)N[C@@H](CCC(N)=O)C(=O)N[C@@H](Cc1c[nH]c2ccccc12)C(=O)N[C@@H](CC(C)C)C(=O)N[C@H](C(=O)N[C@@H](C)C(=O)NCC(=O)NCC(N)=O)C(C)C)C(C)C)C(=O)O
A cAMP EC50 (assay 1) (human glucagon receptor) of 62 nM, a cAMP EC50 (assay 1) [1] of 817 nM and a cAMP EC50 (assay 1) (human GLP-1 receptor) of 0.0231 nM were found for B1 in this work.

B2: g803 (peptide)
peptide: HSQGTFTSDYSKYK([γGlu-Palmitoyl])DSRSARDFVEWLVAGG-NH2
modifications: N-terminus assumed
SMILES: CCCCCCCCCCCCCCCC(=O)N[C@@H](CCC(=O)NCCCC[C@H](NC(=O)[C@H](Cc1ccc(O)cc1)NC(=O)[C@H](CCCCN)NC(=O)[C@H](CO)NC(=O)[C@H](Cc1ccc(O)cc1)NC(=O)[C@H](CC(=O)O)NC(=O)[C@H](CO)NC(=O)[C@@H](NC(=O)[C@H](Cc1ccccc1)NC(=O)[C@@H](NC(=O)CNC(=O)[C@H](CCC(N)=O)NC(=O)[C@H](CO)NC(=O)[C@@H](N)Cc1c[nH]cn1)[C@@H](C)O)[C@@H](C)O)C(=O)N[C@@H](CC(=O)O)C(=O)N[C@@H](CO)C(=O)N[C@@H](CCCNC(=N)N)C(=O)N[C@@H](CO)C(=O)N[C@@H](C)C(=O)N[C@@H](CCCNC(=N)N)C(=O)N[C@@H](CC(=O)O)C(=O)N[C@@H](Cc1ccccc1)C(=O)N[C@H](C(=O)N[C@@H](CCC(=O)O)C(=O)N[C@@H](Cc1c[nH]c2ccccc12)C(=O)N[C@@H](CC(C)C)C(=O)N[C@H](C(=O)N[C@@H](C)C(=O)NCC(=O)NCC(N)=O)C(C)C)C(C)C)C(=O)O
A cAMP EC50 (assay 1) (human glucagon receptor) of 0.0108 nM, a cAMP EC50 (assay 1) [1] of 32.9 nM and a cAMP EC50 (assay 1) (human GLP-1 receptor) of 0.0296 nM were found for B2 in this work.

B3: g732 (peptide)
peptide: HGQGTFTSDYSKYK([γGlu-Palmitoyl])DSERARDFVAWLVAGG-NH2
modifications: N-terminus assumed
SMILES: CCCCCCCCCCCCCCCC(=O)N[C@@H](CCC(=O)NCCCC[C@H](NC(=O)[C@H](Cc1ccc(O)cc1)NC(=O)[C@H](CCCCN)NC(=O)[C@H](CO)NC(=O)[C@H](Cc1ccc(O)cc1)NC(=O)[C@H](CC(=O)O)NC(=O)[C@H](CO)NC(=O)[C@@H](NC(=O)[C@H](Cc1ccccc1)NC(=O)[C@@H](NC(=O)CNC(=O)[C@H](CCC(N)=O)NC(=O)CNC(=O)[C@@H](N)Cc1c[nH]cn1)[C@@H](C)O)[C@@H](C)O)C(=O)N[C@@H](CC(=O)O)C(=O)N[C@@H](CO)C(=O)N[C@@H](CCC(=O)O)C(=O)N[C@@H](CCCNC(=N)N)C(=O)N[C@@H](C)C(=O)N[C@@H](CCCNC(=N)N)C(=O)N[C@@H](CC(=O)O)C(=O)N[C@@H](Cc1ccccc1)C(=O)N[C@H](C(=O)N[C@@H](C)C(=O)N[C@@H](Cc1c[nH]c2ccccc12)C(=O)N[C@@H](CC(C)C)C(=O)N[C@H](C(=O)N[C@@H](C)C(=O)NCC(=O)NCC(N)=O)C(C)C)C(C)C)C(=O)O
A cAMP EC50 (assay 1) (human glucagon receptor) of 0.0396 nM, a cAMP EC50 (assay 1) [1] of 29.4 nM and a cAMP EC50 (assay 1) (human GLP-1 receptor) of 0.0232 nM were found for B3 in this work.
